From article doi:10.1101/2022.04.11.487887 (bioRxiv, 2022) come the findings set out here.

No end group written: not given here.

The target in data set [1] is Halo-Xenopus γTuNA-GCN4 I67A (Xenopus laevis | yeast). As to the kind of experiment: SEC.
The target of data set [2] is Halo-Xenopus γTuNA-GCN4 F75A (Xenopus laevis | yeast). As to the kind of experiment: SEC. For orientation: In gel filtration, larger molecules generally elute earlier.
Data set [3] deals with Strep-His-Halo-3C-Xenopus γTuNA I67A (Xenopus laevis). As to the kind of experiment: pull-down.
The target of data set [4] is Strep-His-Halo-3C-Xenopus γTuNA L70A (Xenopus laevis). As to the kind of experiment: pull-down.
In data set [5] the target is Strep-His-TEV-HaloTag-3C-Xenopus γTuNA (Xenopus laevis). As to the kind of experiment: pull-down.
The target of data set [6] is Halo-3C-AU1 reporter tagged human γTuNA, after PreScission (3C) cleavage (human). The data set can be described thus: co-sedimentation.
Data set [7] concerns the target Halo-Xenopus γTuNA-GCN4 wildtype (Xenopus laevis | yeast). The data set can be described thus: SEC.
For data set [8], the target named is Halo-Xenopus γTuNA-GCN4 L77A (Xenopus laevis | yeast). The data set can be described thus: SEC.
Data set [9] deals with Halo-Xenopus γTuNA-GCN4 L70A (Xenopus laevis | yeast). As to the kind of experiment: SEC.
Data set [10] deals with the molecule itself. As to the kind of experiment: SEC.

Chain of Xenopus γ-tubulin ring complex (γTuRC) (Q5U4M5 whole entry, looked up): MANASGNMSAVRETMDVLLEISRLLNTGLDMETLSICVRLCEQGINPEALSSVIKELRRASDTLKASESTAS
Chain of Xenopus γ-tubulin ring complex (γTuRC) (P23330 whole entry, looked up): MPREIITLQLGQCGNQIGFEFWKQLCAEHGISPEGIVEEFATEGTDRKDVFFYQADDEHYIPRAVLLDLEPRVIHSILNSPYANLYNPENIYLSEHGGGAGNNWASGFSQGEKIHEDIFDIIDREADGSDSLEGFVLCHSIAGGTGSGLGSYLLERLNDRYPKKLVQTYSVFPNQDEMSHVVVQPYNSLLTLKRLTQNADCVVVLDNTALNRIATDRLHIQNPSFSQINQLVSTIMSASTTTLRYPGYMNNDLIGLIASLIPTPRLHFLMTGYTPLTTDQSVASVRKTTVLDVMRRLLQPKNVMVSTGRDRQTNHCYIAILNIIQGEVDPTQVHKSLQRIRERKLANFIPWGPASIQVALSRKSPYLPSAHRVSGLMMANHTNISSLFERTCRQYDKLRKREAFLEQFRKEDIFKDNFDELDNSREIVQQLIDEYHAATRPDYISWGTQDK

For Halo-Xenopus γTuNA-GCN4 I67A, the stoichiometry N (usually the number of molecules, sites or subunits per partner or assembly) in data set [1] came to 2.

The molecule Halo-Xenopus γTuNA-GCN4 F75A returned a stoichiometry N in [2] of 2.

Take “Xenopus γ-tubulin ring complex (γTuRC) (from UniProt P23330 1-451; Q5U4M5 1-72)”: the percent of the wildtype's γTuRC binding turned out to be 85% in data set [3] and 50% in data set [4]. The molecule further came in with a percent of γ-tubulin signal lost from the extract after one round of depletion in data set [5] above 75%. The percent of purified γTuRCs that lost their γTuNA dimer in data set [6] amounted to 66%.

The molecule Halo-Xenopus γTuNA-GCN4 wildtype had a stoichiometry N in data set [7] of 2.

The molecule Halo-Xenopus γTuNA-GCN4 L77A displayed a stoichiometry N in data set [8] of 2.

In data set [9], Halo-Xenopus γTuNA-GCN4 L70A registered a stoichiometry N of 2.

Regarding SPTRARNMKDFENQITELKKENFNLKLRIYFLEERMQQEFHGPTEH (domain or fragment, not fully specified (N-terminus)) [Strep-His-TEV-HaloTag-3C-human γTuNA], the “stoichiometry N” value in data set [10] turned out to be 2.

For MKDFEKQIAELKKENFNLKLRIYFLEEQVQQKCDNSSEDLYRMNIE (domain or fragment, Xenopus laevis, not fully specified (N-terminus)) [Strep-His-TEV-HaloTag-3C-Xenopus γTuNA], in data set [10], the “stoichiometry N” value is 2.

Turning to MKDFEKQIAELKKENANLKLRIYFLEEQVQQKCDNSSEDLYRMNIE (domain or fragment, Xenopus laevis, not fully specified (N-terminus)) [Strep-His-TEV-HaloTag-3C-Xenopus γTuNA F75A], the binding result in data set [10] was “binds”.

In the case of MKDFEKQIAELKKENFNAKLRIYFLEEQVQQKCDNSSEDLYRMNIE (domain or fragment, Xenopus laevis, not fully specified (N-terminus)) [Strep-His-Halo-3C-Xenopus γTuNA L77A], the binding result in [10] is on record as “binds”.

For the molecule MKDFEKQAAELKKENFNLKLRIYFLEEQVQQKCDNSSEDLYRMNIE (domain or fragment, Xenopus laevis, not fully specified (N-terminus)) [Strep-His-Halo-3C-Xenopus γTuNA I67A], in data set [10], the binding result was “binds”.

Consider MKDAEKQIAELKKENFNLKLRIYFLEEQVQQKCDNSSEDLYRMNIE (domain or fragment, Xenopus laevis, not fully specified (N-terminus)) [Strep-His-Halo-3C-Xenopus γTuNA F63A], for which the binding result in data set [10] was “binds”.

In the case of MKDFEKQIAEAKKENFNLKLRIYFLEEQVQQKCDNSSEDLYRMNIE (domain or fragment, Xenopus laevis, not fully specified (N-terminus)) [Strep-His-Halo-3C-Xenopus γTuNA L70A], the binding result in data set [10] is listed as “binds”.
